Measurements reported in patent US20160304571.

Tests used:
[1] = molecular target: Lys29-linked diubiquitin, P0CG48
[2] = molecular target: Lys6-linked diubiquitin, P0CG48
[3] = molecular target: Lys63-linked diubiquitin (enzymatically assembled), P0CG48
Sequence of Lys63-linked diubiquitin (enzymatically assembled), P0CG48 (P0CG48 whole entry, looked up): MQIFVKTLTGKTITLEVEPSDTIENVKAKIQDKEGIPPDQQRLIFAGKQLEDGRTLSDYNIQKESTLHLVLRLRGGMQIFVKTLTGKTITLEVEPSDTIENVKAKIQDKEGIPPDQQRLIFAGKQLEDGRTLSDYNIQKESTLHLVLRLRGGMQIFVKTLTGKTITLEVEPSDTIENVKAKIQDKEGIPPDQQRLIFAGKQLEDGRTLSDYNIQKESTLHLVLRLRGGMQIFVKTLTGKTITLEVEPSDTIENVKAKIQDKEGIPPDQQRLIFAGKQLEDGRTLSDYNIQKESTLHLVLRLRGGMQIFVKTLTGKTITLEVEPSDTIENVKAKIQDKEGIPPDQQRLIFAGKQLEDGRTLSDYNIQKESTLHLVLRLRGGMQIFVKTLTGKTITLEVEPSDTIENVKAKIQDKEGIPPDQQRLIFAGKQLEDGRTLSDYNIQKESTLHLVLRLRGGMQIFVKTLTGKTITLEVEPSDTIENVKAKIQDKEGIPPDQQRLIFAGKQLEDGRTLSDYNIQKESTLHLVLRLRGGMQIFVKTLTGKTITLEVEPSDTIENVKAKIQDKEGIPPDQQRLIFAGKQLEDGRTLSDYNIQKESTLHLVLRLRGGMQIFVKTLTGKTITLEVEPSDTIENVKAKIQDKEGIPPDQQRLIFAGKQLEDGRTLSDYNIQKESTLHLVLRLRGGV

Sequence of Lys29-linked diubiquitin, P0CG48 (P0CG48 whole entry, looked up): as above
Sequence of Lys6-linked diubiquitin, P0CG48 (P0CG48 whole entry, looked up): as above

B1: USP15 (protein)
chain: MAEGGAADLDTQRSDIATLLKTSLRKGDTWYLVDSRWFKQWKKYVGFDSWDKYQMGDQNVYPGPIDNSGLLKDGDAQSLKEHLIDELDYILLPTEGWNKLVSWYTLMEGQEPIARKVVEQGMFVKHCKVEVYLTELKLCENGNMNNVVTRRFSKADTIDTIEKEIRKIFSIPDEKETRLWNKYMSNTFEPLNKPDSTIQDAGLYQGQVLVIEQKNEDGTWPRGPSTPKSPGASNFSTLPKISPSSLSNNYNNMNNRNVKNSNYCLPSYTAYKNYDYSEPGRNNEQPGLCGLSNLGNTCFMNSAIQCLSNTPPLTEYFLNDKYQEELNFDNPLGMRGEIAKSYAELIKQMWSGKFSYVTPRAFKTQVGRFAPQFSGYQQQDCQELLAFLLDGLHEDLNRIRKKPYIQLKDADGRPDKVVAEEAWENHLKRNDSIIVDIFHGLFKSTLVCPECAKISVTFDPFCYLTLPLPMKKERTLEVYLVRMDPLTKPMQYKVVVPKIGNILDLCTALSALSGIPADKMIVTDIYNHRFHRIFAMDENLSSIMERDDIYVFEININRTEDTEHVIIPVCLREKFRHSSYTHHTGSSLFGQPFLMAVPRNNTEDKLYNLLLLRMCRYVKISTETEETEGSLHCCKDQNINGNGPNGIHEEGSPSEMETDEPDDESSQDQELPSENENSQSEDSVGGDNDSENGLCTEDTCKGQLTGHKKRLFTFQFNNLGNTDINYIKDDTRHIRFDDRQLRLDERSFLALDWDPDLKKRYFDENAAEDFEKHESVEYKPPKKPFVKLKDCIELFTTKEKLGAEDPWYCPNCKEHQQATKKLDLWSLPPVLVVHLKRFSYSRYMRDKLDTLVDFPINDLDMSEFLINPNAGPCRYNLIAVSNHYGGMGGGHYTAFAKNKDDGKWYYFDDSSVSTASEDQIVSKAAYVLFYQRQDTFSGTGFFPLDRETKGASAATGIPLESDEDSNDNDNDIENENCMHTN
cleavage in in vitro deubiquitinase assay (SDS-PAGE) [1]: appreciably higher resistance to hydrolysis by USP2, USP15 and USP21 than K6- and K63-linked ubiquitin
cleavage in in vitro deubiquitinase assay (SDS-PAGE) [2]: disassembled this chain type as efficiently as K63-linked chains
cleavage in in vitro deubiquitinase assay (SDS-PAGE) [3]: disassembled this chain type as efficiently as K63-linked chains

B2: AMSH (protein)
chain: MSDHGDVSLPPEDRVRALSQLGSAVEVNEDIPPRRYFRSGVEIIRMASIYSEEGNIEHAFILYNKYITLFIEKLPKHRDYKSAVIPEKKDTVKKLKEIAFPKAEELKAELLKRYTKEYTEYNEEKKKEAEELARNMAIQQELEKEKQRVAQQKQQQLEQEQFHAFEEMIRNQELEKERLKIVQEFGKVDPGLGGPLVPDLEKPSLDVFPTLTVSSIQPSDCHTTVRPAKPPVVDRSLKPGALSNSESIPTIDGLRHVVVPGRLCPQFLQLASANTARGVETCGILCGKLMRNEFTITHVLIPKQSAGSDYCNTENEEELFLIQDQQGLITLGWIHTHPTQTAFLSSVDLHTHCSYQMMLPESVAIVCSPKFQETGFFKLTDHGLEEISSCRQKGFHPHSKDPPLFCSCSHVTVVDRAVTITDLR
cleavage in in vitro deubiquitinase assay (SDS-PAGE, silver stain) [1]: inactive against Lys6- and Lys29-linked diubiquitin
cleavage in in vitro deubiquitinase assay (SDS-PAGE, silver stain) [2]: inactive against Lys6- and Lys29-linked diubiquitin
cleavage in in vitro deubiquitinase assay (SDS-PAGE, silver stain) [3]: cleaves Lys63-linked diubiquitin under identical reaction conditions with high activity

B3: TRABID (protein)
chain: LEVDFKKLKQIKNRMKKTDWLFLNACVGVVEGDLAAIEAYKSSGGDIARQLTADEVRLLNRPSAFDVGYTLVHLAIRFQRQDMLAILLTEVSQQAAKCIPAMVCPELTEQIRREIAASLHQRKGDFACYFLTDLVTFTLPADIEDLPPTVQEKLFDEVLDRDVQKELEEESPIINWSLELATRLDSRLYALWNRTAGDCLLDSVLQATWGIYDKDSVLRKALHDSLHDCSHWFYTRWKDWESWYSQSFGLHFSLREEQWQEDWAFILSLASQPGASLEQTHIFVLAHILRRPIIVYGVKYYKSFRGETLGYTRFQGVYLPLLWEQSFCWKSPIALGYTRGHFSALVAMENDGYGNRGAGANLNTDDDVTITFLPLVDSERKLLHVHFLSAQELGNEEQQEKLLREWLDCCVTEGGVLVAMQKSSRRRNHPLVTQMVEKWLDRYRQIRPCTSLS
cleavage in in vitro deubiquitinase assay (SDS-PAGE, silver stain) [1]: cleaves Lys29 linkages more rapidly than Lys63 linkages
fold better substrate than Lys63-linked diubiquitin [1]: 40-fold better substrate
specificity constant (kcat/Km), quantitative western blot [1]: 1.0 (±0.2)×10^5 M^-1 s^-1
cleavage in in vitro deubiquitinase assay (SDS-PAGE, silver stain) [2]: did not cleave Lys6-linked diubiquitin
cleavage in in vitro deubiquitinase assay (SDS-PAGE, silver stain) [3]: cleaves Lys29 linkages more rapidly than Lys63 linkages
specificity constant (kcat/Km), fluorescence anisotropy [3]: 1.7 (±2.0)×10^3 M^-1 s^-1
specificity constant (kcat/Km), quantitative western blot [3]: 2.5 (±0.4)×10^3 M^-1 s^-1
